Four molecules from publication PMC7533888 can be followed below.

The target of data set [1] is T1, AtARF5-DBD (Arabidopsis thaliana, UniProt P93024 1-390).
T1 sequence: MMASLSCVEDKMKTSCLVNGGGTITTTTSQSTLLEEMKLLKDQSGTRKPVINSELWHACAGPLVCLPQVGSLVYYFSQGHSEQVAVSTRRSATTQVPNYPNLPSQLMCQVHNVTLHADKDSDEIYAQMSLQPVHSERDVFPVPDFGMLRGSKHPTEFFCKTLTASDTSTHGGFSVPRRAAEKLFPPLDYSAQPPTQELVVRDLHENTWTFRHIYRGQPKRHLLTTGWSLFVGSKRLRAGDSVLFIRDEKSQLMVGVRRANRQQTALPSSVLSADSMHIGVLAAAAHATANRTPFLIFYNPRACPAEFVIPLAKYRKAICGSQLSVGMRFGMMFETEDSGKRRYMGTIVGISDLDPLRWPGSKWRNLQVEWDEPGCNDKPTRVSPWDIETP
The experiment in a line: smFRET titration.

The target of another data set is T2, AtARF1-DBD (Arabidopsis thaliana, UniProt Q8L7G0 1-355).
T2 sequence: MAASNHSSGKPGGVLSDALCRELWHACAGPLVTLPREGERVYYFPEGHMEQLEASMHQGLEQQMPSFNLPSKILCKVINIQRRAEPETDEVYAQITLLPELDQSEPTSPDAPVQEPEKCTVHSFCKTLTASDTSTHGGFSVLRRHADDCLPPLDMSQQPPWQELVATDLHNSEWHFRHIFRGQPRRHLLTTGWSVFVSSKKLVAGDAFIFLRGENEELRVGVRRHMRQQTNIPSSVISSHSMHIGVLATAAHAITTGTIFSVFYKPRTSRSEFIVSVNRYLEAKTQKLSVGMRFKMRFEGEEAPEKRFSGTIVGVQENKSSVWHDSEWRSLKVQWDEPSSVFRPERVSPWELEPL
The experiment in a line: smFRET titration.

Data set [2] deals with T1, AtARF5-DBD. As to the kind of experiment: size-exclusion chromatography. In general terms: Size exclusion chromatography separates by hydrodynamic size, large species first.

For orientation: Kd means a measure of binding affinity in units of concentration. Low values mean higher affinity, high ones lower affinity.

B1: DR5 (dsDNA)
DNA 1: ACTGCCTTTTGTCGGCCTTTTGTCGGATCCGTGTG
DNA 2: CACACGGATCCGACAAAAGGCCGACAAAAGGCAGT
As for B1, the dissociation constant (Kd) amounted to 60 nM with AtARF5-DBD [1] and 570 nM with AtARF1-DBD.

B2: pTMO5Δ1-IR7 (dsDNA)
DNA 1: TGGTCTCTGGTCGGTTTTTTA
DNA 2: TAAAAAACCGACCAGAGACCA
As for B2, the binding result with AtARF5-DBD [2] is “no binding”.

B3: IR8 (dsDNA)
DNA 1: ACTCTTTTTTGTCGGGGAAAAGGCCGACAATCCGTGTG
DNA 2: CACACGGATTGTCGGCCTTTTCCCCGACAAAAAAGAGT
In the case of B3, the Kd in the data set with AtARF5-DBD [1] was 9 nM; with AtARF1-DBD it was 140 nM.

B4: pTMO5Δ2-IR7 (dsDNA)
DNA 1: TTTTTTTTGGTCGGTTTTTTA
DNA 2: TAAAAAACCGACCAAAAAAAA
Regarding B4, the binding result with AtARF5-DBD [2] is listed as “no binding”.
